Measured values published in US20260258084A1, “New Peptides as Selective IL-23 Receptor Antagonists” (Sanofi, priority 2022, published 2026).
Starred links: 1 amine or outer side, 2 acyl side, 3 side chain; linkers in the order of their positions; H or OH if unused. Positions of bridges follow the written chain, without caps; N, C: chain ends. Non-standard residues stand in square brackets, D forms with d. No end group written: not given here. Yde = (2S)-2-amino-3-[4-[2-(dimethylamino)ethoxy]phenyl]propanoic acid, CN(C)CCOc1ccc(C[C@H](N[*:1])C(=O)[*:2])cc1; NdmK = (2S)-6-amino-2-(dimethylamino)hexanoic acid, CN(C)[C@@H](CCCCN[*:3])C(=O)[*:2]; Trp(7-Me) = Cc1cccc2c(C[C@H](N)C(=O)O)c[nH]c12; Tyr(Me) = COc1ccc(C[C@H](N[*:1])C(=O)[*:2])cc1; αMeLys(Me2) = CN(C)CCCC[C@](C)(N)C(=O)O; 2Nal = N[C@@H](Cc1ccc2ccccc2c1)C(=O)O; εLys = N[C@@H](CCCCN[*:1])C(=O)[*:2]; NMe5Ava = CN(CCCCC(=O)[*:2])[*:1]; 3Pal = N[C@@H](Cc1cccnc1)C(=O)O; αMeL = CC(C)C[C@](C)(N)C(=O)O; Thp = NC1(C(=O)O)CCOCC1; Aib = CC(C)(N)C(=O)O; Ava = NCCCCC(=O)O; Sar = CNCC(=O)O

T1: recombinant human IL-23R-Fc chimera (human, UniProt Q5VWK5 24-353)
T1 construct: used at 0.1 µg/ml in the ELISA; not shown: Fc part of the chimera; detected with goat anti-hu-IgG1-HRP a
T1 sequence (looked up): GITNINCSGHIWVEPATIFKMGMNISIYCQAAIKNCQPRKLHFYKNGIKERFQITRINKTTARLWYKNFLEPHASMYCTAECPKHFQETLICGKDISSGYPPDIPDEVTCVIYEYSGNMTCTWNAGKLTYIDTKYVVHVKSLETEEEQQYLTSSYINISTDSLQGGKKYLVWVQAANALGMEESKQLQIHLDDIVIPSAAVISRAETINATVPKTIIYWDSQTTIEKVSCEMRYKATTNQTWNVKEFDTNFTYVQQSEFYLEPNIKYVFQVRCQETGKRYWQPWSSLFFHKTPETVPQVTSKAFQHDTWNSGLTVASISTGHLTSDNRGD

T2: IL-23 receptor on the surface of HEK-Blue IL-23 cells (UniProt Q5VWK5 24-629, limits assumed)
T2 sequence (looked up): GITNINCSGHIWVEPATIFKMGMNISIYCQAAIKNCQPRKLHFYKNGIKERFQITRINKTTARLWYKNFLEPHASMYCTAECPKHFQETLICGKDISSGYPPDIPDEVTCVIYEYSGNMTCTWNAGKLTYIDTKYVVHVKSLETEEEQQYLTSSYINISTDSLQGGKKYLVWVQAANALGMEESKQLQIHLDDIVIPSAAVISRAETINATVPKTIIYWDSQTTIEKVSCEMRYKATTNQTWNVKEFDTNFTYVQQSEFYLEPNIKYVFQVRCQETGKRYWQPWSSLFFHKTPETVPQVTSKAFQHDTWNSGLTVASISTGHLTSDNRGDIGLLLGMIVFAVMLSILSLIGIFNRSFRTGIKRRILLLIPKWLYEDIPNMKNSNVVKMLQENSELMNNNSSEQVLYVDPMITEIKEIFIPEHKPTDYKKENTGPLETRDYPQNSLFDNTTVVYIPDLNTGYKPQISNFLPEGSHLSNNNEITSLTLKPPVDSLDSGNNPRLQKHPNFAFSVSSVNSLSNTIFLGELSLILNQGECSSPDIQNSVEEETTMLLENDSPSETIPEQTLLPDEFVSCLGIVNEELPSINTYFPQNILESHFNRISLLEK


How the values were obtained:
[1] = molecular target: T1, recombinant human IL-23R-Fc chimera; assay: competition ELISA: IL-23R-Fc binding to coated human IL23
Method: Antagonism of compounds for human interleukin-23 receptor antagonists, was determined by an ELISA assay.
A 384-well plate was coated with 50 μl/well of human IL23 at a final concentration of […] and incubated overnight at 4° C. The wells were washed 3 times with 80 μl wash buffer and blocked with 80 μl blocking buffer for 60 minutes at room temperature and washed again. 20 μl of serially diluted test peptides was added to each well and subsequently 20 μl of recombinant human IL-23R-Fc chimera at final concentration of 0.1 μg/ml. The plate was incubated for 60 minutes at room temperature. After the wells were washed, bound IL23R-Fc was detected with goat anti-hu-IgG1-HRP antibody. Signals were visualized with QuantaBlu Fluorogenic Peroxidase Substrate.

[2] = molecular target: T2, IL-23 receptor on the surface of …; assay: cell-based or functional assay

| Binder | IC50 [1] | pSTAT3 (nM) [2] |
| --- | --- | --- |
| [Ava]CNT[Trp(7-Me)]K(Ac)C[Yde][2Nal][Thp]EN[3Pal][Sar]-NH2 (lactam N-11; disulfide 2-7; SMILES CC(=O)NCCCC[C@@H]1NC(=O)[C@H](Cc2c[nH]c3c(C)cccc23)NC(=O)[C@H]([C@@H](C)O)NC(=O)[C@H](CC(N)=O)NC(=O)[C@@H]2CSSC[C@H](NC1=O)C(=O)N[C@@H](Cc1ccc(OCCN(C)C)cc1)C(=O)N[C@@H](Cc1ccc3ccccc3c1)C(=O)NC1(CCOCC1)C(=O)N[C@H](C(=O)N[C@@H](CC(N)=O)C(=O)N[C@@H](Cc1cccnc1)C(=O)N(C)CC(N)=O)CCC(=O)NCCCCC(=O)N2) [Compound of SEQ ID NO: 35] | 340 pM | 0.34 nM |
| K(Ac)CNTWQC[Tyr(Me)][2Nal][Aib]DNN-NH2 (lactam (positions not given here); disulfide 2-7; not fully specified (bridges); printed as K[Ac](§1)-C(@2)-N-T-W-Q-C(@2)-Yme-Nal-Aib-D(§1)-N—N—NH2; also: K1 acetylated, whether acetyl is on alpha-N or epsilon-N (lactam via the other amine) not settled, §1 lactam bridge; @2 disulfide bridge) [Compound of SEQ ID NO: 7] | 600 pM | 25 nM |
| [Ava]C[εLys](Ac)WQC[Yde][2Nal][αMeL]ENN-NH2 (lactam N-10; disulfide 2-6; also: Cys2 carboxyl bonded to Lys3 epsilon-NH2 (isopeptide), Lys3 alpha-N acetylated) [Compound of SEQ ID NO: 28] | 390 pM | 4.11 nM |
| XXNTWQXXXXENN (not fully specified; Apt(§1)-Pen(@2)-N-T-W-Q-Pen(@2)-Yae-Nal-Thp-E(§1)-N-N-NH2) [Pen peptide compound of SEQ ID NO: 163] | 163000 pM | – |

The remaining binders from weak to strong by IC50 [1], led by results:

| IC50 [1] | pSTAT3 (nM) [2] | Binder |
| --- | --- | --- |
| 370 pM | 0.23 nM | [Ava]CNT[Trp(7-Me)]K(Ac)C[Yde][2Nal][αMeL]EN[3Pal][Sar]-NH2 (lactam N-11; disulfide 2-7; SMILES CC(=O)NCCCC[C@@H]1NC(=O)[C@H](Cc2c[nH]c3c(C)cccc23)NC(=O)[C@H]([C@@H](C)O)NC(=O)[C@H](CC(N)=O)NC(=O)[C@@H]2CSSC[C@H](NC1=O)C(=O)N[C@@H](Cc1ccc(OCCN(C)C)cc1)C(=O)N[C@@H](Cc1ccc3ccccc3c1)C(=O)N[C@@](C)(CC(C)C)C(=O)N[C@H](C(=O)N[C@@H](CC(N)=O)C(=O)N[C@@H](Cc1cccnc1)C(=O)N(C)CC(N)=O)CCC(=O)NCCCCC(=O)N2) [Compound of SEQ ID NO: 65] |
| 360 pM | 4.4 nM | [NMe5Ava]C[NdmK][Trp(7-Me)]K(Ac)C[Yde][2Nal][αMeLys(Me2)]EN[3Pal][Sar]-NH2 (lactam N-10; disulfide 2-6) [Compound of SEQ ID NO: 61] |
